*: point of attachment. FITC = O=C1OC2(c3ccc(O)cc3Oc3cc(O)ccc32)c2ccc(NC(=S)*)cc21; Ahx = NCCCCCC(=O)O
Biological target: T1, full-length E. coli DnaK (residues 1–638) (Escherichia coli, UniProt P0A6Y8 1-638)
T1 construct: DnaK (Hsp70), Escherichia coli, residues 1-638; cloned from pTTQ19dnaK+ into pET28a; source: E. coli BL21(DE3), purified (Q Sepharose, DEAE-Sephacel, Superdex 200)
Assay: fluorescence polarisation; fluorescence anisotropy of FITC-B2 with 1-μM DnaK in buffer C (50-mM Tris-HCl pH 7.4, 20-mM MgCl2, 1-mM EDTA, 0.5-mM TCEP), DBeQ solutions in DMSO added, room temperature, 30-min incubation
Conditions: both partners purified

T1 sequence (P0A6Y8 whole entry, the tested form may be a part): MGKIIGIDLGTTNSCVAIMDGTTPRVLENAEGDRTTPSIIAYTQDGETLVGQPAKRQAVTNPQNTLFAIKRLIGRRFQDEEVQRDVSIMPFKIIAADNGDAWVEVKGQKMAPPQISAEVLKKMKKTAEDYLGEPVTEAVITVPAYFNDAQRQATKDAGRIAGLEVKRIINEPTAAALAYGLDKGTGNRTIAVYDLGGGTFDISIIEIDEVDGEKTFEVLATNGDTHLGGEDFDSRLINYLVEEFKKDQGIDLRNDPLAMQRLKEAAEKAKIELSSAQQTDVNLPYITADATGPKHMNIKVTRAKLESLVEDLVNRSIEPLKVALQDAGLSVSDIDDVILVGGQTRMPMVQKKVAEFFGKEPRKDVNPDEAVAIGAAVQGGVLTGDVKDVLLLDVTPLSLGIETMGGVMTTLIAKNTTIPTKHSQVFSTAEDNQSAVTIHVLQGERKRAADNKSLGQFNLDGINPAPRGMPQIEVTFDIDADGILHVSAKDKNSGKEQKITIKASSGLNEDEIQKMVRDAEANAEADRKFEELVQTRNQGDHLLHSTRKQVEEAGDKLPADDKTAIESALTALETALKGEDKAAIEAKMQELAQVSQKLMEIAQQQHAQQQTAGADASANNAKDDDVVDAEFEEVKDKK

B1: FITC-B2 (FITC-Ahx-QRKLFFNLRKTKQRLGWFNQ-NH2) (peptide)
peptide: {FITC-Ahx}-QRKLFFNLRKTKQRLGWFNQ-NH2
SMILES: CC(C)C[C@H](NC(=O)[C@H](CCCNC(=N)N)NC(=O)[C@H](CCC(N)=O)NC(=O)[C@H](CCCCN)NC(=O)[C@@H](NC(=O)[C@H](CCCCN)NC(=O)[C@H](CCCNC(=N)N)NC(=O)[C@H](CC(C)C)NC(=O)[C@H](CC(N)=O)NC(=O)[C@H](Cc1ccccc1)NC(=O)[C@H](Cc1ccccc1)NC(=O)[C@H](CC(C)C)NC(=O)[C@H](CCCCN)NC(=O)[C@H](CCCNC(=N)N)NC(=O)[C@H](CCC(N)=O)NC(=O)CCCCCNC(=S)Nc1ccc2c(c1)C(=O)OC21c2ccc(O)cc2Oc2cc(O)ccc21)[C@@H](C)O)C(=O)NCC(=O)N[C@@H](Cc1c[nH]c2ccccc12)C(=O)N[C@@H](Cc1ccccc1)C(=O)N[C@@H](CC(N)=O)C(=O)N[C@@H](CCC(N)=O)C(N)=O
notes: peptide B2, substrate-mimicking peptide; also called FITC-labeled peptide B2; substrate-mimicking peptide; source: obtained as described before (65)
  binding result: binds

— article PMC7948422, “Repurposing p97 inhibitors for chemical modulation of the bacterial ClpB–DnaK bichaperone system” (The Journal of Biological Chemistry, 2020)
